Experimental data taken from paper PMC11829017.

Experiments:
[1] = target: E. coli ρ G150D with the sensor cysteines C84/C405 (X1), untagged (E. coli MG1655) (UniProt P0AG30); assay: cross-linking; BMOE (0.5 mM) crosslinking of 1 μM purified ρ in PN23 buffer without nucleotide; LDS-PAGE
[2] = target: E. coli ρ G150D with the sensor cysteines C84/C405 (X1), untagged (E. coli MG1655) (UniProt P0AG30); assay: cross-linking; BMOE (0.5 mM) crosslinking of 1 μM purified untagged ρ in PN23 buffer with ppGpp or pppGpp; LDS-PAGE
[3] = target: E. coli ρ G150D with the sensor cysteines C84/C405 (X1), untagged (E. coli MG1655) (UniProt P0AG30); assay: cross-linking; BMOE (0.5 mM) crosslinking of 1 μM purified ρ in PN23 buffer with 2 mM ADP, 10 min at room temperature; LDS-PAGE

percent of ρ in the filament fraction [1]: 18%
stoichiometry N [2]: 12
percent of ρ in the filament fraction [3]: 56%
Substance: E. coli ρ G150D with the sensor cysteines C84/C405 (X1), untagged (from UniProt P0AG30 1-419) (enzyme)
